Assay results published in paper PMC10397247.
One block for each binder: values may come before it.

Legend:
[1] = target: T1, 4H485-AA; assay: two-hybrid library CCmax; conditions: mean of both orientations;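 further: natural log of median RNA to DNA barcode read ratio; higher means stronger binding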
T1 chain: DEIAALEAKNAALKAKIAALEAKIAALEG

[2] = target: T2, 4H2389-AA; assay: two-hybrid library CCmax; conditions: mean of both orientations;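 further: natural log of median RNA to DNA barcode read ratio; higher means stronger binding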
T2 chain: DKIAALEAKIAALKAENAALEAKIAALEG

[3] = target: T3, 4H3009-AA; assay: two-hybrid library CCmax; conditions: mean of both orientations;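 further: natural log of median RNA to DNA barcode read ratio; higher means stronger binding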
T3 chain: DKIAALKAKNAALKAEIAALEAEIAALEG

[4] = target: T4, 4H536-AA; assay: two-hybrid library CCmax; conditions: mean of both orientations;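 further: natural log of median RNA to DNA barcode read ratio; higher means stronger binding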
T4 chain: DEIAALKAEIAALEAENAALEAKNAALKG

[5] = target: T5, 4H3865-AA; assay: two-hybrid library CCmax; conditions: mean of both orientations
T5 chain: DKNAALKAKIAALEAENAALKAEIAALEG

[6] = target: T6, 4H3590-AA; assay: two-hybrid library CCmax; conditions: mean of both orientations
T6 chain: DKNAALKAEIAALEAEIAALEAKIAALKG

[7] = target: T7, 4H2330-AA; assay: two-hybrid library CCmax; conditions: mean of both orientations
T7 chain: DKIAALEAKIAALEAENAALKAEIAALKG

[8] = target: T8, 4H3120-AA; assay: two-hybrid library CCmax; conditions: mean of both orientations
T8 chain: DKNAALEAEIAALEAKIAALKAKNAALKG

[9] = target: T9, 4H909-AA; assay: two-hybrid library CCmax; conditions: mean of both orientations
T9 chain: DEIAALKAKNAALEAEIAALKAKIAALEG

[10] = target: T10, 4H2865-AA; assay: two-hybrid library CCmax; conditions: mean of both orientations
T10 chain: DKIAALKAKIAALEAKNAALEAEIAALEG

[11] = target: T11, 4H745-AA; assay: two-hybrid library CCmax; conditions: mean of both orientations
T11 chain: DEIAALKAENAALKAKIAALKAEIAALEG

[12] = target: T12, 4H2438-AA; assay: two-hybrid library CCmax; conditions: mean of both orientations
T12 chain: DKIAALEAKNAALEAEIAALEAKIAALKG

[13] = target: T13, 4H3165-AA; assay: two-hybrid library CCmax; conditions: mean of both orientations
T13 chain: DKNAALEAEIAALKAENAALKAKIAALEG

[14] = target: T14, 4H3697-AA; assay: two-hybrid library CCmax; conditions: mean of both orientations
T14 chain: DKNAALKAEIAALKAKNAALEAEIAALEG

[15] = target: T15, 4H2698-AA; assay: two-hybrid library CCmax; conditions: mean of both orientations
T15 chain: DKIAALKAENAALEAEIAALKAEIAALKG

[16] = target: T16, 4H2274-AA; assay: two-hybrid library CCmax
T16 chain: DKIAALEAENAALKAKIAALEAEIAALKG

[17] = target: T17, 4H710-AA; assay: two-hybrid library CCmax; conditions: mean of both orientations
T17 chain: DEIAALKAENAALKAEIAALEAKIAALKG

[18] = target: T18, 4H2649-AA; assay: two-hybrid library CCmax; conditions: mean of both orientations
T18 chain: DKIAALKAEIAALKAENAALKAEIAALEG

[19] = target: T19, 4H94-AA; assay: two-hybrid library CCmax; conditions: mean of both orientations
T19 chain: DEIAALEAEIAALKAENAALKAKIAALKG

[20] = target: T20, 4H2473-AA; assay: two-hybrid library CCmax; conditions: mean of both orientations
T20 chain: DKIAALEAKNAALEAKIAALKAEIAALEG

[21] = target: T21, 4H797-AA; assay: two-hybrid library CCmax; conditions: mean of both orientations
T21 chain: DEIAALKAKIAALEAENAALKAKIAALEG

[22] = target: T22, 4H3395-AA; assay: two-hybrid library CCmax; conditions: mean of both orientations
T22 chain: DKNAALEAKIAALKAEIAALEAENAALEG

[23] = target: T23, 4H629-AA; assay: two-hybrid library CCmax; conditions: mean of both orientations
T23 chain: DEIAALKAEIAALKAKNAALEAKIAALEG

[24] = target: T24, 4H3410-AA; assay: two-hybrid library CCmax; conditions: mean of both orientations
T24 chain: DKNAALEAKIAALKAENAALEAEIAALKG

[25] = target: T25, 4H2725-AA; assay: two-hybrid library CCmax; conditions: mean of both orientations
T25 chain: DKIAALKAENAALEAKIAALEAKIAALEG

[26] = target: T26, 4H891-AA; assay: two-hybrid library CCmax; conditions: mean of both orientations
T26 chain: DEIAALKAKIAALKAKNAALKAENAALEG

[27] = target: T27, 4H3381-AA; assay: two-hybrid library CCmax; conditions: mean of both orientations
T27 chain: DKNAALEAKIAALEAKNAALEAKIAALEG

[28] = target: T28, 4H570-AA; assay: two-hybrid library CCmax; conditions: mean of both orientations
T28 chain: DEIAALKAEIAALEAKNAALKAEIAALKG

[29] = target: T29, 4H458-AA; assay: two-hybrid library CCmax; conditions: mean of both orientations
T29 chain: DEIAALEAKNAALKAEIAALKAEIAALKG

[30] = target: T30, 4H3753-AA; assay: two-hybrid library CCmax; conditions: mean of both orientations
T30 chain: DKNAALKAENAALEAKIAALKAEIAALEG

[31] = target: T31, 4H3016-AA; assay: two-hybrid library CCmax; conditions: mean of both orientations
T31 chain: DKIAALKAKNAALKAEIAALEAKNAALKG

[32] = target: T32, 4H850-AA; assay: two-hybrid library CCmax; conditions: mean of both orientations
T32 chain: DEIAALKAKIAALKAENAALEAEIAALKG

[33] = target: T33, 4H3130-AA; assay: two-hybrid library CCmax; conditions: mean of both orientations
T33 chain: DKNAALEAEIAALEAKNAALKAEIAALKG

[34] = target: T34, 4H2277-AA; assay: two-hybrid library CCmax
T34 chain: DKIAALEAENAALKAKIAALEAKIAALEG

[35] = target: T35, 4H310-AA; assay: two-hybrid library CCmax; conditions: mean of both orientations
T35 chain: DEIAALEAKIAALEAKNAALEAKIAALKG

[36] = target: T36, 4H930-AA; assay: two-hybrid library CCmax; conditions: mean of both orientations
T36 chain: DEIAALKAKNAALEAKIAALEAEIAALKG

[37] = target: T37, O8-bH; assay: two-hybrid library CCNG1
T37 chain: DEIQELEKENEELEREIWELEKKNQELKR

[38] = target: T38, O9-bH; assay: two-hybrid library CCNG1
T38 chain: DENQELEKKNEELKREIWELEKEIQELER

[39] = target: T39, 4H717-bH; assay: two-hybrid library CCNG1
T39 chain: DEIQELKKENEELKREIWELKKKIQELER

[40] = target: T40, 4H568-bH; assay: two-hybrid library CCNG1
T40 chain: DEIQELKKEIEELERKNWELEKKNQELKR

[41] = target: T41, 4H3855-bH; assay: two-hybrid library CCNG1
T41 chain: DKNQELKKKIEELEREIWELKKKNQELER

[42] = target: T42, 4H883-bH; assay: two-hybrid library CCNG1
T42 chain: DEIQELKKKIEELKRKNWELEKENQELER

[43] = target: T43, 4H3843-bH; assay: two-hybrid library CCNG1
T43 chain: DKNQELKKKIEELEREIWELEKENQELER

[44] = target: T44, 4H754-bH; assay: two-hybrid library CCNG1
T44 chain: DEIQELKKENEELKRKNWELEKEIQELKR

[45] = target: T45, 4H3782-bH; assay: two-hybrid library CCNG1
T45 chain: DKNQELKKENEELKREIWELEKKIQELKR

[46] = target: T46, 4H607-bH; assay: two-hybrid library CCNG1
T46 chain: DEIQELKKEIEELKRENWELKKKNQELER

[47] = target: T47, 4H687-bH; assay: two-hybrid library CCNG1
T47 chain: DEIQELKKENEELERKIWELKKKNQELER

[48] = target: T48, 4H72-bH; assay: two-hybrid library CCNG1
T48 chain: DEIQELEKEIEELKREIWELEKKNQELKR

[49] = target: T49, 4H4001-bH; assay: two-hybrid library CCNG1
T49 chain: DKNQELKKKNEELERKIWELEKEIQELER

[50] = target: T50, 4H454-bH; assay: two-hybrid library CCNG1
T50 chain: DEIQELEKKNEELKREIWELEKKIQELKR

[51] = target: T51, 4H918-bH; assay: two-hybrid library CCNG1
T51 chain: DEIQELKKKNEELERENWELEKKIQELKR

[52] = target: T52, 4H908-bH; assay: two-hybrid library CCNG1
T52 chain: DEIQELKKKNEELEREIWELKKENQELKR

[53] = target: T53, 4H462-bH; assay: two-hybrid library CCNG1
T53 chain: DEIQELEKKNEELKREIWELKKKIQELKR

[54] = target: T54, 4H797-bH; assay: two-hybrid library CCNG1
T54 chain: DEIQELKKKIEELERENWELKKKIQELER

[55] = target: T55, 4H953-bH; assay: two-hybrid library CCNG1
T55 chain: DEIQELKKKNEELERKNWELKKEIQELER

[56] = target: T56, 4H967-bH; assay: two-hybrid library CCNG1
T56 chain: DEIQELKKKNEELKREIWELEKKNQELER

[57] = target: T57, 4H3855-bA; assay: two-hybrid library CCNG1
T57 chain: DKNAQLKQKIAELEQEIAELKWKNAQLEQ

[58] = target: T58, 4H87-AA; assay: two-hybrid library CCmax; conditions: mean of both orientations
T58 chain: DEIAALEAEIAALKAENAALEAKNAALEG

[59] = target: T59, 4H510-AA; assay: two-hybrid library CCmax; conditions: mean of both orientations
T59 chain: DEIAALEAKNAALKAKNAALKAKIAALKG

[60] = target: T60, 4H775-AA; assay: two-hybrid library CCmax; conditions: mean of both orientations
T60 chain: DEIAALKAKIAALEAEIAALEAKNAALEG

[61] = target: T61, 4H3134-AA; assay: two-hybrid library CCmax
T61 chain: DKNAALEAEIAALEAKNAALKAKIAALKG

[62] = target: T62, 4H3625-AA; assay: two-hybrid library CCmax; conditions: mean of both orientations
T62 chain: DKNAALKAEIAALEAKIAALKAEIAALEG

[63] = target: T63, 4H390-AA; assay: two-hybrid library CCmax; conditions: mean of both orientations
T63 chain: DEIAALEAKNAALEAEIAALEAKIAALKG

[64] = target: T64, 4H3409-AA; assay: two-hybrid library CCmax; conditions: mean of both orientations
T64 chain: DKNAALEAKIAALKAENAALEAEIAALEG

[65] = target: T65, 4H3940-AA; assay: two-hybrid library CCmax; conditions: mean of both orientations
T65 chain: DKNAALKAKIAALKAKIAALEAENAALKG

[66] = target: T66, 4H816-AA; assay: two-hybrid library CCmax; conditions: mean of both orientations
T66 chain: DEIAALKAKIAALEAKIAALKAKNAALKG

interaction score [37]: 0.991
interaction score [38]: 0.486
Binder: DEIQELEKENEELEREIWELEKKNQELKR [O8-bH]

interaction score [40]: -1.1
interaction score [42]: -0.346
interaction score [43]: -0.634
interaction score [57]: 1.29
interaction score [46]: -2.13
interaction score [47]: -0.585
interaction score [48]: -0.557
interaction score [49]: -0.099
interaction score [51]: -2.64
interaction score [53]: -0.193
interaction score [54]: -0.437
interaction score [55]: -0.885
interaction score [56]: -0.0277
Binder: DKNQELKKKIEELEREIWELEKENQELER [4H3843-bH]

The remaining lines, values behind:

Binder: DKIAALEAENAALKAKIAALEAEIAALKG [4H2274-AA]
interaction score [1]: -0.34
interaction score [2]: -0.987
interaction score [3]: 0.108
interaction score [4]: -1.54
interaction score [5]: -0.926
interaction score [6]: -0.977
interaction score [7]: -1.13
interaction score [8]: -1.33
interaction score [9]: -1.73
interaction score [10]: -1.31
interaction score [11]: 0.497
interaction score [12]: 0.189
interaction score [13]: -1.19
interaction score [14]: -1.45
interaction score [15]: 0.894
interaction score [16]: 2.45
interaction score [17]: 0.53
interaction score [18]: -1.69
interaction score [19]: -1.32
interaction score [20]: -0.485
interaction score [21]: -1.27
interaction score [22]: -1.6
interaction score [23]: -1.47
interaction score [24]: -1.36
interaction score [25]: 0.181
interaction score [26]: -1.73
interaction score [27]: -1.35
interaction score [28]: -1.8
interaction score [29]: 0.0218
interaction score [30]: -1.17
interaction score [31]: -1.01
interaction score [32]: -1.39
interaction score [33]: -1.87
interaction score [34]: 0.21
interaction score [35]: -1.25
interaction score [36]: -1.05

Binder: DKNQELKKENEELKREIWELEKKIQELKR [4H3782-bH]
interaction score [39]: 0.481
interaction score [40]: 0.164
interaction score [41]: 0.0378
interaction score [42]: -0.532
interaction score [43]: 0.943
interaction score [44]: 0.775
interaction score [45]: 0.738
interaction score [46]: 0.717
interaction score [47]: 0.418
interaction score [48]: 1.04
interaction score [49]: 0.67
interaction score [50]: 1.75
interaction score [51]: -0.854
interaction score [52]: -1.78
interaction score [53]: 1.71
interaction score [54]: -0.446
interaction score [55]: -0.497
interaction score [56]: -0.136

Binder: DKNAALEAEIAALEAKNAALKAKIAALKG [4H3134-AA]
interaction score [58]: -0.703
interaction score [59]: -2.21
interaction score [60]: -0.634
interaction score [61]: -0.475
interaction score [62]: -0.878
interaction score [63]: -0.0241
interaction score [64]: 1.96
interaction score [65]: -1.19
interaction score [66]: -0.115
